Test results reported in the supplement of paper PMC10567573.

B1: ZNF449 (parent)
chain: RIHSGEEPHKCPECGKRFLRSSDL
B2: PPFIA4 (parent)
chain: VMTLPSDLRKHRRKLLSPVSREEN

Variants of: B1
Assay: protein stability index of a GFP-peptide fusion (GPS, HEK-293T) (PSI 1-6); higher = more stable
Details: c terminus: a fixed tail appended
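Also: lentivirally expressed fusions sorted by FACS into six bins by GFP to DsRed ratio, PSI derived from sequencing read proportions per bin multiplied by bin number.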

Protein stability index of substitutions, site by site:
H3: V 3.34, Q 4.33, E 3.48, L 3.69, Y 3.32, S 3.74, P 3.69, F 2.63, A 3.48, D 3.85, M 3.05
R17: C 3.74, L 3.08, V 3.17, N 3.4, E 4.2, M 3.59, S 4, K 4.13, I 3.72, A 3.61, D 3.71, F 3.2, G 3.12, H 4.23, T 3.97
P12: Y 3.12, E 4.41, M 3.36, G 3.08, S 3.66, Q 3.33, H 3.24, F 3.29, I 2.94, L 3.23, D 4.36, C 3.32, T 3.76, A 3.15, K 3.2
E7: M 3.22, V 2.96, F 2.98, Y 2.71, A 2.71, L 2.98, R 1.89, D 2.82, G 2.81, C 4.79, K 2.46, I 2.68
C14: W 4.39, H 3.95, P 4.06, Y 3.6, K 3.87, T 4.69, M 4.21, I 5, N 4.3, R 4.32, F 3.47, S 4.77
E6: F 2.95, Q 3.1, V 2.28, G 3.23, T 2.71, R 3.24, D 3.25, P 3.69, I 3.09, S 1.79, A 3.24, Y 2.27
H9: A 3.42, W 2.73, M 3.42, R 3.18, F 3.95, V 4.15, T 3.44, S 3.28, Q 3.19, P 3.2, C 4.35
I2: S 3.18, G 2.78, K 3.43, M 3.48, H 3.46, T 4.76, N 4.19, L 3.77, C 5.05, P 3.57, E 3.5, V 3.98, W 3.9, R 3.7
C11: V 4.19, P 4.23, M 4.35, A 4.32, W 3.79, Y 4.21, H 4.41, N 4.57
L24: N 3.89, F 3.3, M 3.41, R 2.29, K 3.96, C 3.63, W 2.93, D 4.61, S 3.88, Y 3.29, T 3.79, V 3.31
D23: C 2.75, N 2.8, Q 1.86, V 1.73, K 2.77, Y 1.72, L 2.16, P 2.29, F 2.04, T 2.7, I 1.61, S 2.46, H 3.41, A 2.23
L19: T 3.65, Y 3.23, W 3.09, V 3.32, M 4.05, A 3.96, I 2.76, R 3.74, Q 4.41, H 3.41, C 4.48, G 4.31
P8: T 3.45, I 4.26, H 3.18, Y 3.57, L 3.41, Q 4.29, A 3.64, F 2.44, S 3.25, D 4.1, C 3.19, E 3.44
S22: L 2.67, A 2.93, M 2.28, T 3.05, E 3.62, R 3.02, W 1.94, C 3.94
K16: R 3.9, V 2.37, Y 3.77, P 3.82, H 3.19, F 2.55, L 2.78, D 4.41, S 3.68, E 3.99, C 3.32, T 3.68, W 2.69, I 2.93, M 2.61
S4: M 2.55, K 3.19, A 3.34, T 3.53, Y 2.84, G 3.06, H 3.18, Q 4.12
R20: N 4.21, P 3.99, C 3.88, A 4.09, Y 2.86, E 3.91, F 3.35, S 3.82, T 3.17, I 2.91, V 2.27, W 2.31, H 2.89
K10: A 3.35, R 3.55, M 3.17, T 3.82, P 3.7, E 3.57, V 4.17, Y 3.94, H 2.95, Q 3.39, N 3.42, G 3.82, D 4.19, L 3.96
G5: V 3.07, L 3.68, P 2.85, M 3.75, N 3.44, H 4.07, A 3.79, K 3.41
S21: L 2.48, K 4.17, I 3.04, Q 2.75, D 4.25, R 2.65, N 3.56, A 3.31, M 2.24, Y 3.22, C 3.69, H 3.44, P 2.86, F 2.15
E13: Y 3.54, I 3.26, F 3.77, W 3.86, N 3.43, R 2.84, A 2.72, L 3.38, S 3.63, Q 2.13, P 3.6, G 3.21
G15: M 3.88, S 3.76, I 3.6, T 3.89, V 3.25, Y 3.44, P 4.37, K 3.63, F 3.48, Q 3.85, E 4.24, D 3.27, C 3.28, W 2.87, H 2.87
R1: N 3.72, Q 4.11, M 3.4, L 2.92, S 3.86, P 4.04, F 1.38, C 5.29, T 3.37, Y 1.9, D 4.13, A 3.75
F18: Q 3.58, V 2.92, K 4.33, D 4.4, P 3.83, C 4.15, Y 3.87, S 3.29, I 3.22, L 2.86, A 5.36, R 3.33, N 4.68, W 3.5

Variants of: B2
Assay: as above
Details: c terminus: a fixed tail appended

Protein stability index: each site, then its substitutions
R21: P 3.91
L16: D 4.08
P18: H 3.52, E 4.62, N 3.72
D7: P 3.44
S17: I 3.45
T3: Y 2.5, L 2.32, H 3.52
S6: Y 3.5, P 3.97, K 3.24, V 2.4
K14: P 4.01, S 3.79
R13: L 4.05, G 3.91
P5: M 2.47, T 3.67, A 3.06
R9: Q 4.49
K10: P 4.05
H11: I 3.12
L8: M 4.01, N 3.74
E22: Q 3.19, C 2.8, M 3.25
V19: E 4.21, Q 4.31, K 3.67, N 3.91
R12: W 2.73, D 4.68
L4: A 4.27, H 4.08
M2: R 4.04
L15: S 4.94, G 4.39
N24: G 3.23
